“And” between values parts separate entries of the source, which are not always exact repeats. Equal values may be shown once. Read-outs that look alike come from different tables or passages of the source.
Legend:
[1] = molecular target: T1, Human CD1d on cells (human, UniProt P15813 20-335); assay: cell-based or functional assay
T1 sequence (looked up): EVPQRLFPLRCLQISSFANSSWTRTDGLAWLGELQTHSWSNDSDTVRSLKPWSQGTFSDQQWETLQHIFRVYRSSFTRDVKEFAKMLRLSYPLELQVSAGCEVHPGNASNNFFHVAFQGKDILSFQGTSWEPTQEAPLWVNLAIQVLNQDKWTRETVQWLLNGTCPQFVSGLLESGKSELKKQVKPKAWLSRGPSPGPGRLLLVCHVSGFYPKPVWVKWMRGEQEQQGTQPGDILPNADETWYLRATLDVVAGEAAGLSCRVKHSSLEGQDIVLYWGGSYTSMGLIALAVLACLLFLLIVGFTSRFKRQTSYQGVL

[2] = molecular target: T1, Human CD1d on cells; assay: cell-based or functional assay; remark: listed apart in the source
[3] = molecular target: T1, Human CD1d on cells; assay: cell-based or functional assay; remark: listed apart in the source
[4] = molecular target: T1, Human CD1d on cells; assay: cell-based or functional assay; remark: listed apart in the source
[5] = molecular target: T1, Human CD1d on cells; assay: cell-based or functional assay; remark: listed apart in the source
[6] = molecular target: T1, Human CD1d on cells; assay: cell-based or functional assay; remark: listed apart in the source
[7] = molecular target: T1, Human CD1d on cells; assay: cell-based or functional assay; remark: listed apart in the source
[8] = molecular target: T1, Human CD1d on cells; assay: cell-based or functional assay; remark: listed apart in the source
[9] = molecular target: T1, Human CD1d on cells; assay: cell-based or functional assay; remark: listed apart in the source
[10] = molecular target: T1, Human CD1d on cells; assay: cell-based or functional assay; remark: listed apart in the source
[11] = molecular target: T1, Human CD1d on cells; assay: cell-based or functional assay; remark: listed apart in the source
[12] = molecular target: T1, Human CD1d on cells; assay: cell-based or functional assay; remark: listed apart in the source
[13] = molecular target: T2, CD1d tetramer loaded with α-GalCer (ProImmune) (UniProt P15813 20-301, limits assumed); assay: flow cytometry, inhibition of CD1d tetramer (10 nM) binding to NKTCR on J.RT3-T3.5 cells
T2 construct: Bought reagent; also called fluorochrome-conjugated CD1d tetramer
T2 sequence (looked up): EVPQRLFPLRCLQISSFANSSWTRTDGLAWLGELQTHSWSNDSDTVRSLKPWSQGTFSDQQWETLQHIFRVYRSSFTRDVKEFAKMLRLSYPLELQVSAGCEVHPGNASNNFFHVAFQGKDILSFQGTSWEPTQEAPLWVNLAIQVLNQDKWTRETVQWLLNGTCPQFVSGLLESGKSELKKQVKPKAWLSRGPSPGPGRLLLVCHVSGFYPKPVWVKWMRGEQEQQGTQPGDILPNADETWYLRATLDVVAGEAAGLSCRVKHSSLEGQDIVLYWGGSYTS
Method: To perform the assay, antibodies were prepared at decreasing concentrations from 10 μg/mL in 0.1% bovine serum albumin (BSA) in cold 1×PBS at pH 7.4. […] Wash steps were done in 0.1% BSA in 1×PBS. Data were acquired by flow cytometry and analyzed using flow cytometry analysis software (FlowJo® Treestar, Inc.).

[14] = molecular target: T3, Human CD1d/β2M (human, UniProt P15813 20-301; P61769 21-119); assay: direct ELISA, plate coated with 1 µg/mL human CD1d, HRP anti-human kappa detection
T3 construct: also called hCD1d; recombinant human CD1d

B1: 401.11 (antibody, V domains shown)
VH: QVQLVGSGGGLVKPGRSLRLSCAASGFTFDDYAMHWVRQAPGKGLEWVATIIWNSAIIGYADSVKGRFIVSRDNAKNSLYLQMNSLRAEDMALYYCAKDMCSSSGCPDGYFDSWGQGTLVTVSS
VL: DIQMTQSPSSVSASVGDRVTITCRASQHISSWLAWYQQKPGKAPNLLIYAASSLQSGVSSRFSGSGSGTDFTLTISSLQPEDFATYYCQQANRFPLTFGGGTKLEIKR
With B1 the “fold potency against 51.1, IL-2 release” value [1] was ~15 fold, the “fold potency against antibody 42 (C24:1 βGluCer)” value [1] was ≤ 58 fold and the “fold potency against antibody 42 (THP-1 assay)” value [1] was ≤ 114 fold. For the same binder, the “fold potency against antibody 42 (moDC assay)” value [1] was ≤ 200 fold, the “fold potency against antibody 42, IL-2 release” value [1] was ~20 fold and the “fold potency against antibody 51.1 (C24:1 βGluCer)” value [1] was ≤ 47 fold. The “IL-2 release EC50 (U-937 + NKTCR cell line)” value [2] was 5.3 ng/mL, the “IFN-γ EC50 (THP-1)” value [3] was 3.8 ng/mL and the “IL-4 EC50 (THP-1)” value [3] was 1.9 ng/mL. For the same binder, the “IL-5 EC50 (THP-1)” value [3] was 1.7 ng/mL, the “IL-13 EC50 (THP-1)” value [3] was 2.5 ng/mL and the “IFN-γ EC50 (primary CD14+ cells)” value [4] was 6.8 ng/mL. The “IL-4 EC50 (primary CD14+ cells)” value [4] was 5.9 ng/mL, the “IL-5 EC50 (primary CD14+ cells)” value [4] was 6.2 ng/mL and the “IL-13 EC50 (primary CD14+ cells)” value [4] was 12.1 ng/mL. For the same binder, the “NKT IFN-γ EC50 (THP-1)” value [5] was 3.75 ng/mL, the “NKT IFN-γ EC50 (moDC)” value [5] was 0.857 ng/mL and the “NKT IFN-γ EC50 (THP-1)” value [6] was 3.75 ng/mL. The “NKT IFN-γ EC50 (moDC)” value [6] was 0.857 ng/mL, the “NKT IL-4 EC50 (THP-1)” value [6] was 2.88 ng/mL and the “NKT IL-4 EC50 (moDC)” value [6] was 6.86 ng/mL. The “NKT IL-4 EC50 (moDC)” value [7] was 7.63 ng/mL and 6.54 ng/mL, the “NKT IL-13 EC50 (moDC)” value [7] was 22.8 ng/mL and 19.6 ng/mL and the “NKT IFN-γ EC50 (moDC)” value [8] was 39.4 ng/mL. The “NKT IL-4 EC50 (moDC)” value [8] was 17.3 ng/mL, the “NKT IL-5 EC50 (moDC)” value [8] was 47.5 ng/mL and the “NKT IL-13 EC50 (moDC)” value [8] was 83.1 ng/mL. The “NKT TNF EC50 (moDC)” value [8] was 16.9 ng/mL, the “NKT IFN-γ EC50 (THP-1)” value [9] was 55.2 ng/mL and the “NKT IL-4 EC50 (THP-1)” value [9] was 2.98 ng/mL. The “NKT IL-5 EC50 (THP-1)” value [9] was 6.96 ng/mL, the “NKT IL-13 EC50 (THP-1)” value [9] was 27.2 ng/mL and the “NKT TNF EC50 (THP-1)” value [9] was 9.18 ng/mL. For the same binder, the “NKT IFN-γ EC50 (moDC)” value [10] was 12.4 ng/mL, the “NKT IL-4 EC50 (moDC)” value [10] was 1.98 ng/mL and the “NKT IL-5 EC50 (moDC)” value [10] was 2.25 ng/mL. The “NKT IL-13 EC50 (moDC)” value [10] was 2.36 ng/mL, the “NKT IFN-γ EC50 (THP-1)” value [11] was 2.33 ng/mL and the “NKT IFN-γ EC50 (moDC)” value [11] was 23.5 ng/mL. The “NKT IL-4 EC50 (THP-1)” value [11] was 1.36 ng/mL, the “NKT IL-4 EC50 (moDC)” value [11] was 12.8 ng/mL and the “NKT IL-13 EC50 (THP-1)” value [11] was 3.29 ng/mL. For the same binder, the “IFN-γ EC50 (C24:1 βGluCer, moDC)” value [12] was 2.38 ng/mL, the “IL-4 EC50 (C24:1 βGluCer, moDC)” value [12] was 1.45 ng/mL and the “IL-5 EC50 (C24:1 βGluCer, moDC)” value [12] was 1.23 ng/mL. For the same binder, the “IL-13 EC50 (C24:1 βGluCer, moDC)” value [12] was 5.55 ng/mL, the “TNF-α EC50 (C24:1 βGluCer, moDC)” value [12] was 1.79 ng/mL and the EC50 [13] was 284 ng/mL.

B2: FAb 401.11.165 (Fab, V domains shown)
VH: EVQLVESGGGLVQPGRSLRLSCAASGFTFDDYAMHWVRQAPGKGLEWVATIIWNSAIIGYADSVKGRFIVSRDNAKNSLYLQMNSLRAEDTALYYCAKDMCSSGGCPDGYFDSWGQGTLVTVSS
VL: DIQMTQSPSSVSASVGDRVTITCRASQHISSWLAWYQQKPGKAPKLLIYAASSLQSGVPSRFSGSGSGTDFTLTISSLQPEDFATYYCQQANRFPLTFGGGTKLEIKR
notes: Made by papain digest of the IgG4
B2 was tested, and the “EC50 (read off the curve)” value [14] was ~60 ng/mL.

Source: US20140286957A1 (Teva, published 2014)
